Experimental data as given in article PMC6606808.

Biological target: Acinetobacter baumannii AdeB multidrug efflux pump (Acinetobacter baumannii AB0057)
Experiment: cryo-EM structure; single-particle cryo-EM of purified AdeB reconstituted in lipidic nanodiscs (MSP 1E3D1, E. coli total extract lipid); 20 mM Tris-HCl pH 7.5, 100 mM NaCl; no substrate; C3 symmetry; 2.98 Å

With “Acinetobacter baumannii AdeB multidrug efflux pump (natural protein)” as the substance, how does the stoichiometry N read?
The stoichiometry N was 3.
